± gives the standard deviation of the averaged measurements.
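Note: ATP exposure 15 min at 22 °C before imaging.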

The data set has as its system ATP. The data set can be described thus: switch fluorescence ratio, 500 uM ATP over buffer (Cy3 cluster intensity, sum of 5 cycles each) (fold (ratio)); higher = stronger signal-on switching upon ATP binding; sequences stand for … in TCGTCGGCAGCGTCAGATGTGTATAAGAGACAGTTTTTTTTTTTTTTTTTTTTTTTTT…TC. Conditions: aptamer strand: ATP DNA aptamer (quencher-CACCTGGGGGAGTATTGCGGAGGAAGG + anchor), 100 nM annealed; ATP concentration: 500 uM. In outline:
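Cy3-labelled switching-strand clusters on a modified Illumina MiSeq flow-cell were annealed to 100 nM quencher-labelled ATP aptamer and imaged first in selection buffer, then after 15 min with 500 uM ATP at 22 °C. NaOH stripping and re-annealing separated each of five buffer/ATP cycles, and clusters outside 100-1000 RFU were excluded. The fluorescence ratio sums target-cycle Cy3 intensity over buffer-cycle Cy3 intensity per cluster and averages it per switch-domain sequence.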
For ATTTTTGGTC, the switch fluorescence ratio stood at 0.9864 ± 0.0038.
For TAGGAGGAGG, the switch fluorescence ratio was 0.984 ± 0.011.
As for TTATTTTCGG, the figure is 0.994 ± 0.019; as for GGGAAAGGGT, 1 ± 0.014; as for CTTGAGACGG, 1.01 ± 0.017.
In the case of TAGCAGGACT, the switch fluorescence ratio was determined as 1.76 ± 0.22.
As for AATGTAAAGT, the figure is 1.001 ± 0.0047.
As for TTGGCATTTA, the figure is 1.034 ± 0.0054; as for AAACGGGGAT, 0.992 ± 0.011; as for TTTCCTGTAT, 0.972 ± 0.046.
As for ATTGTCATGG, the switch fluorescence ratio was determined as 0.999 ± 0.028.
The figure for CAGTGATGAG is 1.03 ± 0.012.
For the sequence GGAGCGGGGA, the switch fluorescence ratio turned out to be 1 ± 0.084.
For the sequence ACGTTCCGCT, the switch fluorescence ratio amounted to 1.099 ± 0.003.
For the sequence AGCAAGGCGT, the switch fluorescence ratio was found to be 1.03 ± 0.043.
The figure for CTACACGAGA is 1.09 ± 0.019; for GGGGGATAAG it is 1 ± 0.028.
The figure for GCAGCTAGTA is 1.044 ± 0.0045; for AGATGTTGAA it is 0.979 ± 0.023; for TTCGGGTTTC it is 1.04 ± 0.058.
As to TGGGTTATGG, the switch fluorescence ratio is 0.972 ± 0.016.
Take GCAGATTACG: the switch fluorescence ratio came out at 1.01 ± 0.058.
The figure for GGCTTAAGGG is 0.972 ± 0.025; for TTCGGCGTTG it is 0.972 ± 0.02.
GGAACTGGCG: the switch fluorescence ratio came to 0.938 ± 0.094.
As for TGTAGGGGTA, the switch fluorescence ratio was 0.98 ± 0.045.
For GCTTAAAGGC, the switch fluorescence ratio came out at 1.01 ± 0.03.
TAAAGTTAGC: the switch fluorescence ratio worked out at 0.995 ± 0.028.
Regarding GCTGTAGTGG, the switch fluorescence ratio is 0.998 ± 0.051.
The figure for TTACTCTCTG is 1.03 ± 0.025.
Regarding TATGCAGCG, the switch fluorescence ratio is 1.001 ± 0.0024.
AGGAAAGATT: the switch fluorescence ratio is 1.01 ± 0.028.
For TACAATCGCC, the switch fluorescence ratio worked out at 1.06 ± 0.029.
In the case of GTTTCTTTTA, the switch fluorescence ratio was 0.99 ± 0.02.
As for GTTACAATGG, the switch fluorescence ratio stood at 0.991 ± 0.038.
With TAAAATTGAA, the switch fluorescence ratio came to 0.9905 ± 0.0041.
With AAGTATCGAC, the switch fluorescence ratio came out at 1.05 ± 0.023.
Take TGTTAGGAAT: the switch fluorescence ratio is 1 ± 0.021.
As to TATCGAGATA, the switch fluorescence ratio was 1.02 ± 0.04.
On to GTCGTTGTTC, for which the switch fluorescence ratio was found to be 1.03 ± 0.027.
Regarding GGGCGCAAGG, the switch fluorescence ratio was found to be 1.02 ± 0.029.
With GACTATAATT, the switch fluorescence ratio came to 1.026 ± 0.0032.
For the sequence TTTTTCACGA, the switch fluorescence ratio was 1.03 ± 0.019.
In the case of GGGTTTGAGC, the switch fluorescence ratio was found to be 0.981 ± 0.033.
In the case of TTTTCCT, the switch fluorescence ratio is 1.04 ± 0.02.
The figure for GGGCGCTTCT is 0.9913 ± 0.0072; for GATGTTGATG it is 0.976 ± 0.014; for GCGCCCGTGG it is 1.01 ± 0.034.
In the case of GGGCTTGTAT, the switch fluorescence ratio stood at 1.03 ± 0.014.
Turning to CCTATTAAAC, the switch fluorescence ratio is 1.04 ± 0.036.
On to ACATTGATCG, for which the switch fluorescence ratio turned out to be 1.03 ± 0.017.
Turning to AGTTTGATAG, the switch fluorescence ratio was 0.998 ± 0.017.
With ATGCATTACT, the switch fluorescence ratio was 1.61 ± 0.11.
With TAGAGAATCG, the switch fluorescence ratio came to 1.065 ± 0.0062.
As for ATGCCCTTCG, the switch fluorescence ratio came to 1.04 ± 0.013.
With TTCTGAAAAC, the switch fluorescence ratio was 1.0127 ± 0.00023.
As for CTTTAGTACG, the figure is 0.9734 ± 0.0012; as for GATATTTGA, 0.99448 ± 0.00073.
For the sequence CAAAGAACTT, the switch fluorescence ratio turned out to be 1.01 ± 0.018.
With GCAAAAAAAT, the switch fluorescence ratio came out at 1.04 ± 0.025.
For the sequence GAATTTTTGA, the switch fluorescence ratio came out at 0.991 ± 0.021.
For AATTATGGTT, the switch fluorescence ratio was 1.03 ± 0.012.
The figure for ATCATTTTTG is 1 ± 0.025; for ATGGATTTAG it is 1.014 ± 0.008.
The figure for CATTTATTTT is 1.01 ± 0.044; for TCTTTGTATG it is 0.991 ± 0.017; for GGCTTGGCGT it is 0.98 ± 0.034.
In the case of GAAGTACGTC, the switch fluorescence ratio came to 1.23 ± 0.18.
Regarding TGTTGGGAAC, the switch fluorescence ratio was 1.07 ± 0.12.
The figure for GCTAGCTGGT is 0.989 ± 0.021; for TCCCTCCCCT it is 1.25 ± 0.056.
For AGGTCTAATG, the switch fluorescence ratio was 1.01 ± 0.03.
Turning to TGGGGTAGCC, the switch fluorescence ratio stood at 0.932 ± 0.029.
As to AGGGTTGAGA, the switch fluorescence ratio was found to be 0.985 ± 0.033.
As for ATGGTTTTTG, the figure is 1.01 ± 0.013.
As for TAAGGCGGTG, the figure is 1.04 ± 0.061; as for TTTAATATAG, 1 ± 0.044.
Consider TTTGATATAA, for which the switch fluorescence ratio was 0.991 ± 0.031.
For TTATGCTTCT, the switch fluorescence ratio was found to be 1.01 ± 0.053.
AATTGGTAAA: the switch fluorescence ratio was 0.9816 ± 0.0044.
The figure for ACCACGGGCG is 1.09 ± 0.018.
For the sequence ATGATAGTGA, the switch fluorescence ratio is 0.991 ± 0.012.
The figure for CGAGGGTAAC is 0.983 ± 0.029; for TAAAAGTGAG it is 1 ± 0.022.
For CCATCGGACA, the switch fluorescence ratio was 1.016 ± 0.0064.
As to AGATTGATCG, the switch fluorescence ratio is 1.02 ± 0.015.
As for ATGGTTAGAT, the figure is 1.01 ± 0.017; as for GTCGGGGGG, 1.01 ± 0.026.
With ATATTAGAGG, the switch fluorescence ratio worked out at 0.998 ± 0.037.
As to AGTAACCAAG, the switch fluorescence ratio was found to be 1.01 ± 0.037.
Turning to CGTAGTGCCC, the switch fluorescence ratio was 1.07 ± 0.048.
In the case of GATATTGGGG, the switch fluorescence ratio amounted to 0.981 ± 0.033.
On to GGTTGGAAGG, for which the switch fluorescence ratio turned out to be 0.9761 ± 0.0047.
Consider TCTTGGTGT, for which the switch fluorescence ratio is 0.9898 ± 0.0088.
For GCTAAAGTCG, the switch fluorescence ratio turned out to be 0.9814 ± 0.005.
Regarding CTTGGGGAGC, the switch fluorescence ratio came to 0.982 ± 0.07.
As for TTTTTCATGG, the figure is 1 ± 0.031; as for ATGTCCTTAT, 0.988 ± 0.029; as for TAAGAAAATT, 0.993 ± 0.023.
As for ATCAGGGTTT, the figure is 1.005 ± 0.0057; as for ATACTCGCGT, 1.014 ± 0.01.
On to GCAGGCGGGC, for which the switch fluorescence ratio amounted to 0.991 ± 0.014.
For the sequence ACGCGGTCCA, the switch fluorescence ratio stood at 0.988 ± 0.019.
The figure for CGAAGTCGGG is 0.955 ± 0.015.
Regarding TTTGCTATAT, the switch fluorescence ratio is 1.18 ± 0.33.
For TTTTCAAACC, the switch fluorescence ratio is 0.9953 ± 0.0034.
Regarding TCATCTGTTG, the switch fluorescence ratio was 1 ± 0.033.
On to GGATGAGCTG, for which the switch fluorescence ratio amounted to 0.978 ± 0.052.
Take AGAATCGGCG: the switch fluorescence ratio is 1.03 ± 0.0081.
As for ATTAAAGGAT, the figure is 0.995 ± 0.033; as for TTAGCAGGGA, 1 ± 0.019.
Regarding TATCGTTGTA, the switch fluorescence ratio turned out to be 0.93881 ± 0.00024.
AACGGGACCT: the switch fluorescence ratio stood at 1.33 ± 0.081.
With TAAGCCCACG, the switch fluorescence ratio is 1.09 ± 0.023.
GCGTTAATAA: the switch fluorescence ratio stood at 1.06 ± 0.038.
For ATGTAAATTT, the switch fluorescence ratio came to 1.01 ± 0.005.
The figure for GCAGATCGGT is 0.967 ± 0.019; for GGAAGGAGGA it is 0.973 ± 0.015.
ATGTAGTGGC: the switch fluorescence ratio is 0.995 ± 0.049.
For CCATGGGGTG, the switch fluorescence ratio was 1.25 ± 0.037.

The record behind these values is the supplement of paper PMC10126150.
